# Measured values taken from patent publication US20030194400.
# T1: soluble Tissue Factor extracellular domain TF1-218
# T1 chain: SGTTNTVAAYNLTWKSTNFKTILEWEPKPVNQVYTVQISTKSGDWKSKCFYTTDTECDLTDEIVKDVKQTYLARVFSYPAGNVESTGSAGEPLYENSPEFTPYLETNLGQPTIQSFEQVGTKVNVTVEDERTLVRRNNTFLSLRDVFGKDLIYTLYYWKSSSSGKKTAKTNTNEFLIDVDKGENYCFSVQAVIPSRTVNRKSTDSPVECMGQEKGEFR
# B1: Factor VIIa (protein)
# chain: ANAFLEELRPGSLERECKEEQCSFEEAREIFKDAERTKLFWISYSDGDQCASSPCQNGGSCKDQLQSYICFCLPAFEGRNCETHKDDQLICVNENGGCEQYCSDHTGTKRSCRCHEGYSLLADGVSCTPTVEYPCGKIPILEKRNASKPQGRIVGGKVCPKGECPWQVLLLVNGAQLCGGTLINTIWVVSAAHCFDKIKNWRNLIAVLGEHDLSEHDGDEQSRRVAQVIIPSTYVPGTTNHDIALLRLHQPVVLTDHVVPLCLPERTFSERTLAFVRFSLVSGWGQLLDRGATALELMVLNVPRLMTQDCLQQSRKVGDSPNITEYMFCAGYSDGSKDSCKGDSGGPHATHYRGTWYLTGIVSWGQGCATVGHFGVYTRVSQYIEWLQKLMRSEPRPGVLLRAPFP
# Legend:
# [1] = molecular target: fibronectin-Tissue Factor (Fn-TF) fusion protein
# [2] = molecular target: T1, soluble Tissue Factor extracellular …
protein,measurement,setting,value
B1,Factor VIIa amidolytic activity (chromozym t-PA hydrolysis),[1],Very little difference in amidolytic activity is discernable for Tissue Factor and Fn-TF except at high concentrations
same,Factor VIIa amidolytic activity (chromozym t-PA hydrolysis),[2],Very little difference in amidolytic activity is discernable for Tissue Factor and Fn-TF except at high concentrations
